{"source": "paper PMC13105642", "molecular_target": "Antibody_82-M1", "sequence (heavy, as listed by the source, chain 1 of 2)": "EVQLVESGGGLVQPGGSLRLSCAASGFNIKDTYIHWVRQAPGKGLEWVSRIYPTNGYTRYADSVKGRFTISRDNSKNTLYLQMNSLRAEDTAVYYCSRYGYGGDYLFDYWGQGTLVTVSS", "sequence (light, as listed by the source, chain 2 of 2)": "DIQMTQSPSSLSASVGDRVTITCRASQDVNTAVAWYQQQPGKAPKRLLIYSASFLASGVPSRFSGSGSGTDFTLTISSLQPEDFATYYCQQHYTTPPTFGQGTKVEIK", "assay": "SPR; Biacore 8K; antibody captured on a Protein G chip; gradient concentrations of LONP1 as analyte; 1x HBS-EP buffer; fitted to a 1:1 binding model", "data": [{"binder": "Lon Peptidase 1 (LONP1) (enzyme) FWEASSRGGGAFSGGEDASEGGAEEGAGGAGGSAGAGEGPVITALTPMTIPDVFPHLPLIAITRNPVFPRFIKIIEVKNKKLVELLRRKVRLAQPYVGVFLKRDDSNESDVVESLDEIYHTGTFAQIHEMQDLGDKLRMIVMGHRRVHISRQLEVEPEEPEAENKHKPRRKSKRGKKEAEDELSARHPAELAMEPTPELPAEVLMVEVENVVHEDFQVTEEVKALTAEIVKTIRDIIALNPLYRESVLQMMQAGQRVVDNPIYLSDMGAALTGAESHELQDVLEETNIPKRLYKALSLLKKEFELSKLQQRLGREVEEKIKQTHRKYLLQEQLKIIKKELGLEKDDKDAIEEKFRERLKELVVPKHVMDVVDEELSKLGLLDNHSSEFNVTRNYLDWLTSIPWGKYSNENLDLARAQAVLEEDHYGMEDVKKRILEFIAVSQLRGSTQGKILCFYGPPGVGKTSIARSIARALNREYFRFSVGGMTDVAEIKGHRRTYVGAMPGKIIQCLKKTKTENPLILIDEVDKIGRGYQGDPSSALLELLDPEQNANFLDHYLDVPVDLSKVLFICTANVTDTIPEPLRDRMEMINVSGYVAQEKLAIAERYLVPQARALCGLDESKAKLSSDVLTLLIKQYCRESGVRNLQKQVEKVLRKSAYKIVSGEAESVEVTPENLQDFVGKPVFTVERMYDVTPPGVVMGLAWTAMGGSTLFVETSLRRPQDKDAKGDKDGSLEVTGQLGEVMKESARIAYTFARAFLMQHAPANDYLVTSHIHLHVPEGATPKDGPSAGCTIVTALLSLAMGRPVRQNLAMTGEVSLTGKILPVGGIKEKTIAAKRAGVTCIVLPAENKKDFYDLAAFITEGLEVHFVEHYREIFDIAFPDEQAEALAVER", "values": [{"measurement": "Kd", "value": 0.829, "unit": "nM"}, {"measurement": "koff", "value": 0.000151, "unit": "s⁻¹"}, {"measurement": "kon", "value": 182000, "unit": "M⁻¹ s⁻¹"}]}]}
